Results: the Immune Epitope Database (IEDB)
Values belong to the sequence of their own block, whether it stands above or below them.

How the values were obtained:
[1] = target: HLA-A*01:01; experiment: IEDB peptide-MHC binding, purified MHC/direct/fluorescence; filed as Kd, often an IC50 or EC50 that approximates it; ≥ and ≤ were set here for values at or beyond the usual limits of such assays
[2] = target: HLA-A*02:01; experiment: as above
[3] = target: HLA-A*03:01; experiment: as above
[4] = target: HLA-A*11:01; experiment: as above; conditions: source organism: Yellow fever virus
[5] = target: HLA-A*29:02; experiment: as above; conditions: source organism: Yellow fever virus
[6] = target: HLA-A*31:01; experiment: as above
[7] = target: HLA-A*69:01; experiment: as above
[8] = target: HLA-B*07:02; experiment: as above
[9] = target: HLA-B*15:01; experiment: as above
[10] = target: HLA-B*15:09; experiment: as above
[11] = target: HLA-B*18:01; experiment: as above; conditions: source organism: Yellow fever virus
[12] = target: HLA-B*27:05; experiment: as above
[13] = target: HLA-B*40:01; experiment: as above
[14] = target: HLA-B*44:02; experiment: as above; conditions: source organism: Yellow fever virus
[15] = target: HLA-B*46:01; experiment: as above
[16] = target: HLA-B*48:01; experiment: as above
[17] = target: HLA-B*57:01; experiment: as above
[18] = target: HLA-B*58:01; experiment: as above
[19] = target: HLA-A*26:03; experiment: as above; conditions: source organism: Listeria monocytogenes serotype 4b str. H7858
[20] = target: HLA-C*15:02; experiment: as above
[21] = target: HLA-A*24:02; experiment: IEDB peptide-MHC binding, purified MHC/competitive/fluorescence; filed as Kd, often an IC50 or EC50 that approximates it; ≥ and ≤ were set here for values at or beyond the usual limits of such assays; conditions: source organism: Escherichia coli B7A
[22] = target: HLA-A*02:01; experiment: as above; conditions: source organism: Human immunodeficiency virus 1
[23] = target: HLA-A*02:03; experiment: as above
[24] = target: HLA-A*02:06; experiment: as above; conditions: source organism: Human immunodeficiency virus 1
[25] = target: HLA-A*02:11; experiment: as above
[26] = target: HLA-A*02:19; experiment: as above
[27] = target: HLA-A*69:01; experiment: as above; conditions: source organism: Human immunodeficiency virus 1
[28] = target: HLA-A*02:12; experiment: as above; conditions: source organism: Yersinia pestis Nepal516
[29] = target: HLA-A*03:01; experiment: as above; conditions: source organism: Yersinia pestis Nepal516
[30] = target: HLA-A*26:01; experiment: as above; conditions: source organism: Yersinia pestis Nepal516
[31] = target: HLA-B*15:01; experiment: as above; conditions: source organism: Yersinia pestis Nepal516
[32] = target: HLA-B*18:01; experiment: as above
[33] = target: HLA-B*27:03; experiment: as above; conditions: source organism: Yersinia pestis Nepal516
[34] = target: HLA-B*39:01; experiment: as above; conditions: source organism: Yersinia pestis Nepal516
[35] = target: HLA-B*46:01; experiment: as above; conditions: source organism: Yersinia pestis Nepal516
[36] = target: HLA-B*51:01; experiment: as above; conditions: source organism: Yersinia pestis Nepal516
[37] = target: HLA-B*57:01; experiment: as above; conditions: source organism: Yersinia pestis Nepal516
[38] = target: HLA-A*24:03; experiment: IEDB peptide-MHC binding, purified MHC/direct/fluorescence; filed as Kd, often an IC50 or EC50 that approximates it; ≥ and ≤ were set here for values at or beyond the usual limits of such assays; conditions: source organism: Camelpox virus M-96
[39] = target: HLA-B*08:01; experiment: as above; conditions: source organism: Variola virus
[40] = target: HLA-B*08:02; experiment: as above; conditions: source organism: Variola virus
[41] = target: HLA-A*11:01; experiment: IEDB peptide-MHC binding, purified MHC/competitive/fluorescence; filed as Kd, often an IC50 or EC50 that approximates it; ≥ and ≤ were set here for values at or beyond the usual limits of such assays
[42] = target: HLA-A*26:02; experiment: as above; conditions: source organism: Taterapox virus
[43] = target: HLA-A*68:02; experiment: as above; conditions: source organism: Taterapox virus
[44] = target: HLA-B*15:17; experiment: as above; conditions: source organism: Taterapox virus
[45] = target: HLA-B*15:17; experiment: IEDB peptide-MHC binding, purified MHC/direct/fluorescence; filed as Kd, often an IC50 or EC50 that approximates it; ≥ and ≤ were set here for values at or beyond the usual limits of such assays; conditions: source organism: Camelpox virus CMS
[46] = target: HLA-B*39:01; experiment: as above; conditions: source organism: Variola virus
[47] = source organism: Yellow fever virus
[48] = source organism: Human immunodeficiency virus 1
[49] = source organism: Giardia lamblia ATCC 50803
[50] = source organism: Yersinia pestis Nepal516
[51] = source organism: Camelpox virus M-96
[52] = source organism: Taterapox virus
[53] = source organism: Camelpox virus CMS

Sequence: FHERGYVKL
Kd [1, 47]: ≥ 20 µM
Kd [2, 47]: ≥ 20 µM
Kd [3, 47]: ≥ 20 µM
Kd [4]: ≥ 20 µM
Kd [5]: ≥ 20 µM
Kd [6, 47]: ≥ 20 µM
Kd [7, 47]: ≥ 20 µM
Kd [8, 47]: ≥ 20 µM
Kd [9, 47]: ≥ 20 µM
Kd [10, 47]: 0.071 µM
Kd [11]: ≥ 20 µM
Kd [12, 47]: ≥ 20 µM
Kd [13, 47]: ≥ 20 µM
Kd [14]: ≥ 20 µM
Kd [15, 47]: ≥ 20 µM
Kd [16, 47]: ≥ 20 µM
Kd [17, 47]: ≥ 20 µM
Kd [18, 47]: ≥ 20 µM

Sequence: FTYAPAGMY
Kd [19]: 0.114 µM

Kd ([20]; source organism: Escherichia coli B7A): 0.396 µM
Kd [21]: 0.0007 µM
Sequence: ITPTIYLLL

Sequence: NTVATLYCV
Kd [22]: 0.215 µM
Kd [23, 48]: 0.0135 µM
Kd [24]: ≤ 0.0001 µM
Kd [25, 48]: 0.0007 µM
Kd [26, 48]: 0.0107 µM
Kd [27]: ≤ 0.001 µM

Sequence: RAIREYFQF
Kd [17, 49]: 0.0477 µM
Kd [18, 49]: 0.005 µM
Kd [20, 49]: 2.13 µM

Sequence: SMLCWLGMT
Kd [23, 50]: ≥ 20 µM
Kd [25, 50]: 0.0512 µM
Kd [28]: 0.577 µM
Kd [26, 50]: ≥ 20 µM
Kd [29]: ≥ 20 µM
Kd [30]: ≥ 20 µM
Kd [31]: ≥ 20 µM
Kd [32, 50]: ≥ 20 µM
Kd [33]: ≥ 20 µM
Kd [34]: ≥ 20 µM
Kd [35]: ≥ 20 µM
Kd [36]: ≥ 20 µM
Kd [37]: ≥ 20 µM

Sequence: SYVFNFHKY
Kd [1, 51]: ≥ 20 µM
Kd [2, 51]: ≥ 20 µM
Kd [38]: 0.055 µM
Kd [6, 51]: ≥ 20 µM
Kd [7, 51]: ≥ 20 µM
Kd [8, 51]: ≥ 20 µM
Kd [39]: ≥ 20 µM
Kd [40]: ≥ 20 µM
Kd [9, 51]: ≥ 20 µM
Kd [17, 51]: ≥ 20 µM
Kd [18, 51]: ≥ 20 µM
Kd [41, 52]: 2.55 µM
Kd [42]: 4.09 µM
Kd [43]: ≥ 20 µM
Kd [44]: ≥ 20 µM
Kd [32, 52]: ≥ 20 µM

Sequence: VSEKYTDMY
Kd [1, 53]: 0.0033 µM
Kd [2, 53]: ≥ 20 µM
Kd [3, 53]: ≥ 20 µM
Kd [6, 53]: ≥ 20 µM
Kd [7, 53]: ≥ 20 µM
Kd [9, 53]: ≥ 20 µM
Kd ([10]; source organism: Variola virus): ≥ 20 µM
Kd [45]: 0.126 µM
Kd [12, 53]: ≥ 20 µM
Kd [46]: ≥ 20 µM
Kd [13, 53]: ≥ 20 µM
Kd [15, 53]: ≥ 20 µM
Kd [16, 53]: ≥ 20 µM
Kd [17, 53]: ≥ 20 µM
Kd [18, 53]: ≥ 20 µM
Kd ([41]; source organism: Vaccinia virus): ≥ 20 µM

Sequence: VSTAIAALF
Kd ([18]; source organism: Mycobacterium tuberculosis): 0.0284 µM
Kd ([20]; source organism: Mycobacterium tuberculosis H37Ra): 0.45 µM
